In patent publication US20240279281A1, “Peptide Inhibitors of Interleukin-23 Receptor” (Janssen Pharmaceutica NV, priority 2023, published 2024):
Starred links: 1 amine or outer side, 2 acyl side, 3 side chain; linkers in the order of their positions; H or OH if unused. Positions of bridges follow the written chain, without caps; N, C: chain ends. Non-standard residues stand in square brackets, D forms with d. No end group written: not given here. X1 = 3‑(7-(3-acetamidophenyl)-1H-indol-3-yl)‑2‑aminopropanoic acid, CC(=O)Nc1cccc(-c2cccc3c(CC(N[*:1])C(=O)[*:2])c[nH]c23)c1; AEF(G) = 2-amino-3-(4-(2-guanidinoethoxy)phenyl)propanoic acid, N=C(N)NCCOc1ccc(C[C@H](N[*:1])C(=O)[*:2])cc1; X10 = 2‑amino‑3‑(4-(2-guanidinoethoxy)phenyl)propanoic acid, N=C(N)NCCOc1ccc(CC(N[*:1])C(=O)[*:2])cc1; Trp(7-(3-AcNH-Ph)) = CC(=O)Nc1cccc(-c2cccc3c(C[C@H](N)C(=O)O)c[nH]c23)c1; N‑methyl‑N‑acetyllysine = N-methyl-N-acetyllysine; 2Nal(6-OH) = N[C@@H](Cc1ccc2cc(O)ccc2c1)C(=O)O; Trp(7-Me) = Cc1cccc2c(C[C@H](N)C(=O)O)c[nH]c12; d(hLys(Me3)) = C[N+](C)(C)CCCCC[C@@H](N)C(=O)O; dLys(Me3) = C[N+](C)(C)CCCC[C@@H](N)C(=O)O; AEF = NCCOc1ccc(C[C@H](N)C(=O)O)cc1; 3Pal = N[C@@H](Cc1cccnc1)C(=O)O; Lipidated = not defined here; NMeK = CN[C@@H](CCCCN)C(=O)O; Pen = CC(C)(S)[C@H](N)C(=O)O; αMeC = C[C@](N)(CS)C(=O)O; lipid = not defined here; Thp = NC1(C(=O)O)CCOCC1; Abu = CC[C@H](N)C(=O)O; PEG = not defined here; Sar = CNCC(=O)O

Biological target: T1, interleukin-23 receptor (IL-23R), Q5VWK5
T1 chain: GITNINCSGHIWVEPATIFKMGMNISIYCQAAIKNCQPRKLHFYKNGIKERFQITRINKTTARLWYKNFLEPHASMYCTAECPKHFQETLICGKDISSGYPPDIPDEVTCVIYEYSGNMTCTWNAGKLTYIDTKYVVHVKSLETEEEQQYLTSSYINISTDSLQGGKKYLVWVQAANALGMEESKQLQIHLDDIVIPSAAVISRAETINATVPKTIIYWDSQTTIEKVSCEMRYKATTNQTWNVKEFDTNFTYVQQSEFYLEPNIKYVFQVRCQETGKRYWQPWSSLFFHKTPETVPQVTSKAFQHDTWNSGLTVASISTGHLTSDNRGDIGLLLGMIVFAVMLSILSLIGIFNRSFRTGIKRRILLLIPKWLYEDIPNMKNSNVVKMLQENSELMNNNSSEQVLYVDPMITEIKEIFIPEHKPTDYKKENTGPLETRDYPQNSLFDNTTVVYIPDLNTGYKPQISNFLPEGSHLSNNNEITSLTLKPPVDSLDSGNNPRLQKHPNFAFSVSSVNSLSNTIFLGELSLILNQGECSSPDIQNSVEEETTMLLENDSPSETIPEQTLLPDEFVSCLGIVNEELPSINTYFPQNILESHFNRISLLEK
Assay: cell-based or functional assay

| Binder | IL23R Reporter Assay IC50 [nM] | PBMC pSTAT3 IC50 [nM] |
| --- | --- | --- |
| [Pen]NT[Trp(7-Me)]K(lipid)[Pen][5‑(4-(2-amino-2-carboxyethyl)phenoxy)‑N,N,N‑trimethylpentan‑1‑aminium][2‑amino‑3‑(6-hydroxynaphthalen-2-yl)propanoic acid][Thp]K(Ac)N[3Pal][Sar] (disulfide 1-6 (inferred); ends not checked; also: K5 lipidated lysine, lipid not given here) [SEQ ID NO: 183] | > 100 | < 1 |
| [d(hLys(Me3))][Pen]NT[Trp(7-Me)]K(Lipidated)[Pen][2‑amino‑3‑(4-(2-aminoethoxy)phenyl)propanoic acid][2‑amino‑3‑(6-hydroxynaphthalen-2-yl)propanoic acid][Thp]K(Ac)N[3Pal][Sar] (disulfide 2-7 (inferred); ends not checked; also: K6 lipidated lysine, lipid not given here) [SEQ ID NO: 187] | > 100 | < 1 |
| [Pen]NT[Trp(7-Me)]K(Ac)[Pen][X10][2Nal(6-OH)][Thp]EN[3Pal][Sar] (ends and bridges not checked) [SEQ ID NO: 24] | < 10 | < 0.1 |
| [Pen]NT[Trp(7-Me)]K(Lipidated)[Pen][2‑amino‑3‑(4-(2-aminoethoxy)phenyl)propanoic acid][2‑amino‑3‑(6-hydroxynaphthalen-2-yl)propanoic acid][Thp]K(Ac)N[3Pal][Sar] (disulfide 1-6 (inferred); ends not checked; also: K5 lipidated lysine, lipid not given here) [SEQ ID NO: 188] | > 100 | < 1 |
| [Pen]NT[Trp(7-Me)]K(Lipidated)[Pen][2‑amino‑3‑(4-(2-aminoethoxy)phenyl)propanoic acid][2‑amino‑3‑(6-hydroxynaphthalen-2-yl)propanoic acid][Thp]K(Ac)N[3Pal][Sar] (disulfide 1-6 (inferred); ends not checked; also: K5 lipidated lysine, lipid not given here) [SEQ ID NO: 189] | > 100 | < 1 |
| [Pen]NT[Trp(7-Me)]K(Lipidated)[Pen][2‑amino‑3‑(4-(2-aminoethoxy)phenyl)propanoic acid][2‑amino‑3‑(6-hydroxynaphthalen-2-yl)propanoic acid][Thp]K(PEG)N[3Pal][Sar] (disulfide 1-6 (inferred); ends not checked; also: lipid structure not given here, PEG size not given here) [SEQ ID NO: 200] | > 100 | < 1 |
| R[Abu]NTWK(Ac)[αMeC][AEF][2Nal(6-OH)][Thp]K(Ac)N[3Pal][Sar] (ends and bridges not checked) [SEQ ID NO: 28] | < 10 | – |
| R[Abu]NTWK(Ac)[αMeC][AEF][2Nal(6-OH)][Thp]K(Ac)N[3Pal][Sar] (ends and bridges not checked) [SEQ ID NO: 29] | < 10 | < 0.1 |
| R[Pen]NT[Trp(7-Me)]K(Ac)[Pen][2‑amino‑3‑(4-(2-aminoethoxy)phenyl)propanoic acid][2‑amino‑3‑(6-hydroxynaphthalen-2-yl)propanoic acid][Thp]K(Ac)N[3Pal][Sar] (disulfide 2-7 (inferred); ends not checked) [SEQ ID NO: 219] | < 10 | < 0.1 |
| R[Pen]NT[Trp(7-Me)]K(Ac)[Pen][2‑amino‑3‑(4-(2-aminoethoxy)phenyl)propanoic acid][2‑amino‑3‑(6-hydroxynaphthalen-2-yl)propanoic acid][Thp]K(Ac)N[3Pal][Sar]K(lipid) (disulfide 2-7 (inferred); ends not checked; also: Lys15 lipidated, lipid not given here) [SEQ ID NO: 222] | > 100 | > 1 |
| [Pen]NT[Trp(7-Me)]K(Ac)[Pen][AEF][2Nal(6-OH)][Thp]EN[3Pal][Sar] (ends and bridges not checked) [SEQ ID NO: 3] | < 10 | – |
| R[Pen]NT[Trp(7-Me)]K(Ac)[Pen][AEF(G)][2Nal(6-OH)][Thp]EN[3Pal][Sar] (ends and bridges not checked) [SEQ ID NO: 32] | < 10 | < 0.01 |
| [dLys(Me3)][Pen]NT[Trp(7-(3-AcNH-Ph))]K(Ac)[Pen][AEF(G)][2Nal(6-OH)][Thp]EN[3Pal][Sar] (ends and bridges not checked) [SEQ ID NO: 33] | < 10 | < 0.01 |
| R[Pen]NT[X1]K(Ac)[Pen][X10][2‑amino‑3‑(6-hydroxynaphthalen-2-yl)propanoic acid][Thp]EN[3Pal][Sar] (ends and bridges not checked) [SEQ ID NO: 35] | < 10 | < 0.1 |
| [dLys(Me3)][Pen]NT[X1]K(Ac)[Pen][5‑(4-(2-amino-2-carboxyethyl)phenoxy)‑N,N,N‑trimethylpentan‑1‑aminium][2‑amino‑3‑(6-hydroxynaphthalen-2-yl)propanoic acid][Thp]EN[3Pal][Sar] (ends and bridges not checked) [SEQ ID NO: 37] | < 10 | – |
| R[Pen]NT[X1]K(Ac)[Pen][5‑(4-(2-amino-2-carboxyethyl)phenoxy)‑N,N,N‑trimethylpentan‑1‑aminium][2‑amino‑3‑(6-hydroxynaphthalen-2-yl)propanoic acid][Thp]EN[3Pal][Sar] (not fully specified (bridges); ends and bridges not checked) [SEQ ID NO: 39] | < 10 | – |
| [Pen]NT[Trp(7-Me)]K(Ac)[Pen][2‑amino‑3‑(4-(2-aminoethoxy)phenyl)propanoic acid][2‑amino‑3‑(6-hydroxynaphthalen-2-yl)propanoic acid][Thp]K(Ac)N[3Pal][Sar]K(lipid) (disulfide 1-6 (inferred); ends not checked; also: K14: lipidated lysine) [SEQ ID NO: 275] | > 100 | < 1 |
| [Pen]K(lipid)T[Trp(7-Me)]K(Ac)[Pen][2‑amino‑3‑(4-(2-aminoethoxy)phenyl)propanoic acid][2‑amino‑3‑(6-hydroxynaphthalen-2-yl)propanoic acid][Thp]EN[3Pal][Sar] (disulfide 1-6 (inferred); ends not checked; also: K2: lipidated lysine) [SEQ ID NO: 276] | > 100 | < 1 |
| RCNT[Trp(7-Me)]K(Ac)[αMeC][AEF][2Nal(6-OH)][Thp]EN[3Pal][Sar] (ends and bridges not checked) [SEQ ID NO: 4] | < 10 | – |
| [Pen]NT[Trp(7-Me)]K(Ac)[Pen][2‑amino‑3‑(4-(2-aminoethoxy)phenyl)propanoic acid][2‑amino‑3‑(6-hydroxynaphthalen-2-yl)propanoic acid][Thp]K(Ac)N[3Pal][Sar]K(lipid) (disulfide 1-6 (inferred); ends not checked; also: K14: lipidated lysine) [SEQ ID NO: 278] | > 100 | < 1 |
| R[Pen]NT[Trp(7-Me)]K(Ac)[Pen][AEF][2Nal(6-OH)][Thp]EN[3Pal][NMeK](lipid) (disulfide 2-7 (inferred); not fully specified; ends not checked) [SEQ ID NO: 279] | > 100 | < 1 |
| [N‑amino‑O‑(2-(2-(methylamino)ethoxy)ethyl)‑D‑serine][Pen]NT[Trp(7-Me)][N‑methyl‑N‑acetyllysine][Pen][AEF][2Nal(6-OH)][Thp]DN[3Pal][Sar] (disulfide 2-7 (inferred); ends not checked) [SEQ ID NO: 290] | < 10 | < 0.1 |
